In one data set the target is GDPMK (Escherichia coli, UniProt P37128, E100A). Kind of data set: X-ray crystal structure, […] Å. The data set is classed as binding. The conditions noted are these: Mg2+; active site; co-crystallised at pH 8.5.
The data set “SEC” deals with the molecule itself. Kind of data set: SEC. In general terms: In gel filtration, larger molecules generally elute earlier.
Substrate in the data set “phosphate release”: Nc1nc2c(ncn2[C@@H]2O[C@H](COP(=O)(O)OP(=O)(O)O[C@H]3O[C@H](CO)[C@@H](O)[C@H](O)[C@@H]3O)[C@@H](O)[C@H]2O)c(=O)[nH]1
Kind of data set: phosphate release. The format is biochemical, Escherichia coli. The conditions noted are these: Mg2+, pH 8.5, 37 °C.

The data set “crystal structure” deals with the molecule itself. Kind of data set: crystal structure.

For the molecule `Nc1nc2c(ncn2[C@@H]2O[C@H](COP(=O)(O)OP(=O)(O)O[C@H]3O[C@H](CO)[C@@H](O)[C@H](O)[C@@H]3O)[C@@H](O)[C@H]2O)c(=O)[nH]1` [GDP-mannose], the “X-ray crystal structure, 2.45 Å” value on GDPMK was “The structure of the complex of the GDPMK E100A mutant with GDP-mannose and magnesium”.

B1: GDPMK, Nudix GDP-mannose hydrolase from E. coli (product of the gene yffH), wild type (enzyme, UniProt P37128 1-191, looked up)
chain: MTQQITLIKDKILSDNYFTLHNITYDLTRKDGEVIRHKREVYDRGNGATILLYNTKKKTVVLIRQFRVATWVNGNESGQLIESCAGLLDNDEPEVCIRKEAIEETGYEVGEVRKLFELYMSPGGVTELIHFFIAEYSDNQRANAGGGVEDEDIEVLELPFSQALEMIKTGEIRDGKTVLLLNYLQTSHLMD
For orientation: stoichiometry N means the number of molecules, sites or subunits per partner or assembly. By Km is commonly meant the substrate concentration at which the rate is half of its maximum. A word on the kcat: it is the number of substrate molecules converted per active site and unit of time at saturation. With B1, the “stoichiometry N” value in the data set “SEC” worked out at 2. Moreover, in the data set “phosphate release”, the Michaelis constant (Km) worked out at 659 ± 65 µM and the turnover number (kcat) was determined as 90.2 ± 6.7 s⁻¹.

B2: GDPMK (Escherichia coli K-12; E149A) (protein)
chain: MTQQITLIKDKILSDNYFTLHNITYDLTRKDGEVIRHKREVYDRGNGATILLYNTKKKTVVLIRQFRVATWVNGNESGQLIESCAGLLDNDEPEVCIRKEAIEETGYEVGEVRKLFELYMSPGGVTELIHFFIAEYSDNQRANAGGGVADEDIEVLELPFSQALEMIKTGEIRDGKTVLLLNYLQTSHLMD
Consider B2, for which, in the data set “phosphate release”, the Km was determined as 555 ± 85 µM and the catalytic constant (kcat) was 80.6 ± 6.3 s⁻¹.

B3: GDPMK (Escherichia coli K-12; R44S) (protein)
chain: MTQQITLIKDKILSDNYFTLHNITYDLTRKDGEVIRHKREVYDSGNGATILLYNTKKKTVVLIRQFRVATWVNGNESGQLIESCAGLLDNDEPEVCIRKEAIEETGYEVGEVRKLFELYMSPGGVTELIHFFIAEYSDNQRANAGGGVEDEDIEVLELPFSQALEMIKTGEIRDGKTVLLLNYLQTSHLMD
For the molecule B3, in the data set “phosphate release”, the catalytic constant (kcat) came to 1.69 ± 0.12 s⁻¹.

B4: GDPMK E100A mutant (enzyme, E. coli, UniProt P37128 1-191, looked up)
chain: MTQQITLIKDKILSDNYFTLHNITYDLTRKDGEVIRHKREVYDRGNGATILLYNTKKKTVVLIRQFRVATWVNGNESGQLIESCAGLLDNDEPEVCIRKAAIEETGYEVGEVRKLFELYMSPGGVTELIHFFIAEYSDNQRANAGGGVEDEDIEVLELPFSQALEMIKTGEIRDGKTVLLLNYLQTSHLMD
For B4, in “crystal structure”, the binding result was “binds”.

B5: GDPMK (Escherichia coli K-12; E151A) (protein)
chain: MTQQITLIKDKILSDNYFTLHNITYDLTRKDGEVIRHKREVYDRGNGATILLYNTKKKTVVLIRQFRVATWVNGNESGQLIESCAGLLDNDEPEVCIRKEAIEETGYEVGEVRKLFELYMSPGGVTELIHFFIAEYSDNQRANAGGGVEDADIEVLELPFSQALEMIKTGEIRDGKTVLLLNYLQTSHLMD
In the case of B5, in “phosphate release”, the Km turned out to be 594 ± 140 µM and the kcat was determined as 21.3 ± 4.6 s⁻¹.

B6: GDPMK (Escherichia coli K-12; K176A) (protein)
chain: MTQQITLIKDKILSDNYFTLHNITYDLTRKDGEVIRHKREVYDRGNGATILLYNTKKKTVVLIRQFRVATWVNGNESGQLIESCAGLLDNDEPEVCIRKEAIEETGYEVGEVRKLFELYMSPGGVTELIHFFIAEYSDNQRANAGGGVEDEDIEVLELPFSQALEMIKTGEIRDGATVLLLNYLQTSHLMD
For B6, the turnover number (kcat) in the data set “phosphate release” came out at 0.11 ± 0.04 s⁻¹.
